In patent US8551493B2, “Peptide with reduced dimer formation” (Circassia Limited, priority 2007, dated 2013):
Where no end group is shown, it is not given here. [ ]: non-standard residue; d: D form. Abu = CC[C@H](N)C(=O)O

Legend:
PBMCs = experiment: Cytokine release assay (IFN-γ, IL-13) on PBMCs from house dust mite allergic individuals; assay type: cell-based, human; settings: number of responders, N = 55 house dust mite allergic individuals; positive = at least 100 pg/ml of cytokine
Excerpt: The following Table presents results from a cytokine release assay performed on PBMCs taken from a population of house dust mite allergic individuals (N=number of individuals in population). A positive response is considered to be production of at least 100 pg/ml of cytokine.

[1] = Dimer formation of individual peptides and binary peptide mixtures, RP-HPLC; assay type: physicochemical
Experimental: The peptides used in this study have a minimum purity of >90%. The effectiveness of each additive to reduce dimer formation was assessed by size exclusion chromatography (SEC) and RP-HPLC. In SEC, molecules are separated based upon their apparent molecular weight. Smaller molecules can distribute into a greater proportion of the column matrix and are retained for longer than analytes of higher molecular weight. Dimers will elute from the column with an apparent molecular weight approximately twice that of the corresponding monomers. Separation by RP-HPLC separates species based on differences in their hydrophobicities. The amount of dimer formed is determined as a percentage of the total peak area ratio (% PAR) for the chromatogram.
Following the generation of data from the preliminary screening a further piece of work was undertaken to evaluate the ability of matrices containing Cysteine hydrochloride and 1-thioglycerol to inhibit the propensity of individual cysteine containing peptides and mixed pairs of these peptides to dimerize compared to the matrix alone. For each excipient mixtures of all the possible binary peptide combinations were prepared. […] The amount of dimer formed is determined as a percentage of the total peak area ratio (% PAR) for the chromatogram in each case.

[2] = T = 0, Control matrix, individual peptide sample
[3] = T = 0, Control matrix, mixed sample MLA01 and MLA05
[4] = T = 1 week, 25° C./60% RH, Control matrix, individual peptide sample
[5] = T = 1 week, 25° C./60% RH, Control matrix, mixed sample MLA01 and MLA05
[6] = T = 72 h, Control matrix, individual peptide sample
[7] = T = 72 h, Control matrix, mixed sample MLA01 and MLA05

Q: What does the source list for NYCQIYPPNVNKIREA [HDM101]?
A: Responders with IFN-g >100 (PBMCs): 2; Responders with IL-13 >100 (PBMCs): 1

Q: For “CPAVKRDVDLFLT (listed as Felis catus) [MLA01, derived from cat allergen Fel d1]”, which “Percentage peak area ratio (% PAR), dimers formed” value (shortened to “Percentage peak area ratio (% PAR)”) [1, 2] is on record?
A: The value was 3.85 % PAR.

Q: What about the “Percentage peak area ratio (% PAR)” value ([1]; T = 0, Control matrix, mixed sample MLA01 and MLA04) of the same sequence?
A: The value was 2.92 % PAR.

Q: What about the “Percentage peak area ratio (% PAR)” value [1, 3] of the same sequence?
A: Its value is 2.73 % PAR.

Q: And the “Percentage peak area ratio (% PAR)” value ([1]; T = 0, Control matrix, mixed sample MLA01 and MLA12)?
A: Its value is 2.7 % PAR.

Q: What about the “Percentage peak area ratio (% PAR)” value ([1]; T = 0, Cysteine matrix, individual peptide sample) of the same sequence?
A: Its value is 0.49 % PAR.

Q: And the “Percentage peak area ratio (% PAR)” value ([1]; T = 0, Cysteine matrix, mixed sample MLA01 and MLA04)?
A: Its value is 0.48 % PAR.

Q: What about the “Percentage peak area ratio (% PAR)” value ([1]; T = 0, Cysteine matrix, mixed sample MLA01 and MLA05) of the same sequence?
A: Its value is 0.73 % PAR.

Q: And the “Percentage peak area ratio (% PAR)” value ([1]; T = 0, Cysteine matrix, mixed sample MLA01 and MLA12)?
A: The value was 0.2 % PAR.

Q: And the “Percentage peak area ratio (% PAR)” value [1, 4]?
A: The value was 66.81 % PAR.

Q: And the “Percentage peak area ratio (% PAR)” value ([1]; T = 1 week, 25° C./60% RH, Control matrix, mixed sample MLA01 and MLA04)?
A: Its value is 39.49 % PAR.

Q: What about the “Percentage peak area ratio (% PAR)” value [1, 5] of the same sequence?
A: The value was 45.59 % PAR.

Q: And the “Percentage peak area ratio (% PAR)” value ([1]; T = 1 week, 25° C./60% RH, Control matrix, mixed sample MLA01 and MLA12)?
A: The value was 40.03 % PAR.

Q: And the “Percentage peak area ratio (% PAR)” value ([1]; T = 1 week, 25° C./60% RH, Cysteine matrix, mixed sample MLA01 and MLA04)?
A: Its value is 0.52 % PAR.

Q: And the “Percentage peak area ratio (% PAR)” value ([1]; T = 1 week, 25° C./60% RH, Cysteine matrix, mixed sample MLA01 and MLA05)?
A: The value was 0.26 % PAR.

Q: And the “Percentage peak area ratio (% PAR)” value ([1]; T = 1 week, 25° C./60% RH, Cysteine matrix, mixed sample MLA01 and MLA12)?
A: The value was 0.23 % PAR.

Q: What about the “Percentage peak area ratio (% PAR)” value [1, 6] of the same sequence?
A: Its value is 43.81 % PAR.

Q: What about the “Percentage peak area ratio (% PAR)” value ([1]; T = 72 h, Control matrix, mixed sample MLA01 and MLA04) of the same sequence?
A: The value was 35.47 % PAR.

Q: And the “Percentage peak area ratio (% PAR)” value [1, 7]?
A: Its value is 41.11 % PAR.

Q: And the “Percentage peak area ratio (% PAR)” value ([1]; T = 72 h, Control matrix, mixed sample MLA01 and MLA12)?
A: The value was 29.62 % PAR.

Q: For NYSQIYPPNVNKIREA [HDM101A], which “Responders with IFN-g >100” value (PBMCs) is on record?
A: Its value is 4.

Q: What about the “Responders with IL-13 >100” value (PBMCs) of the same sequence?
A: Its value is 4.

Q: For RFGISNYCQIYPPNVNK [HDM100], which “Responders with IFN-g >100” value (PBMCs) is on record?
A: The value was 6.

Q: What about the “Responders with IL-13 >100” value (PBMCs) of the same sequence?
A: Its value is 6.

Q: For NAQRFGISNYSQI [HDM102A], which “Responders with IFN-g >100” value (PBMCs) is on record?
A: The value was 14.

Q: What about the “Responders with IL-13 >100” value (PBMCs) of the same sequence?
A: Its value is 16.

Q: With “RILKNCVDAKMTEEDKE (listed as Felis catus) [MLA05, derived from cat allergen Fel d1]” as the sequence, how does the “Percentage peak area ratio (% PAR)” value [1, 2] read?
A: The value was 0.55 % PAR.

Q: What about the “Percentage peak area ratio (% PAR)” value [1, 3] of the same sequence?
A: The value was 0.35 % PAR.

Q: And the “Percentage peak area ratio (% PAR)” value [1, 4]?
A: Its value is 1.65 % PAR.

Q: What about the “Percentage peak area ratio (% PAR)” value [1, 5] of the same sequence?
A: The value was 3.18 % PAR.

Q: What about the “Percentage peak area ratio (% PAR)” value ([1]; T = 1 week, 25° C./60% RH, Control matrix, mixed sample MLA04 and MLA05) of the same sequence?
A: Its value is 3.26 % PAR.

Q: What about the “Percentage peak area ratio (% PAR)” value ([1]; T = 1 week, 25° C./60% RH, Control matrix, mixed sample MLA05 and MLA12) of the same sequence?
A: Its value is 1.85 % PAR.

Q: What about the “Percentage peak area ratio (% PAR)” value ([1]; T = 1 week, 25° C./60% RH, Cysteine matrix, individual peptide sample) of the same sequence?
A: Its value is 0.21 % PAR.

Q: And the “Percentage peak area ratio (% PAR)” value [1, 6]?
A: Its value is 1.99 % PAR.

Q: And the “Percentage peak area ratio (% PAR)” value [1, 7]?
A: Its value is 2.21 % PAR.

Q: And the “Percentage peak area ratio (% PAR)” value ([1]; T = 72 h, Control matrix, mixed sample MLA04 and MLA05)?
A: The value was 2.25 % PAR.

Q: And the “Percentage peak area ratio (% PAR)” value ([1]; T = 72 h, Control matrix, mixed sample MLA05 and MLA12)?
A: Its value is 8.17 % PAR.

Q: For NAQRFGISNYCQI [HDM102], which “Responders with IFN-g >100” value (PBMCs) is on record?
A: Its value is 16.

Q: And the “Responders with IL-13 >100” value (PBMCs)?
A: The value was 13.

Q: What does the source list for “NYBQIYPPNVNKIREA (NY[Abu]QIYPPNVNKIREA) [HDM101B, B=2-aminobutyric acid]”?
A: Responders with IFN-g >100 (PBMCs): 1; Responders with IL-13 >100 (PBMCs): 2
